Laboratory results reported in US20050255564A1, “Sulfated fucan” (TAKARA BIO INC, priority 2002, published 2005).

Experiment: endo-type α-(1-4)L-fucosidase activity (HPLC of PA-labeled substrate)
Type: biochemical, Fucus vesiculosus
Details: endo-type α-(1-4)L-fucosidase activity after each purification step, Table 14
Experimental: The sulfated fucan oligosaccharide 1-(4) as described in Example 2 was used to establish a system for measuring an endo-type α-(1-4)L-fucosidase activity. First, the sulfated fucan oligosaccharide 1-(4) was fluorescently labeled at the reducing end with 2-aminopyridine according to the method as described in Example 2-(4). The endo-type α-(1-4)L-fucosidase activity was measured as follows.
Briefly, 75 μl of 100 mM sodium phosphate buffer (pH 7.0), 7.5 μl of a bovine serum albumin solution (2 mg/ml), 3.75 μl of 4 M sodium chloride, 50.25 μl of water, 6 μl of the sulfated fucan oligosaccharide 1-(4) fluorescently labeled at the reducing end with 2-aminopyridine (10 pmol/μl) and 7.5 μl of an endo-type α-(1-4)L-fucosidase solution were mixed together. After reacting at 30° C. for 3 hours, the reaction mixture was treated at 100° C. for 10 minutes and analyzed using HPLC. As controls, a reaction mixture obtained by a reaction in which the solvent for the endo-type α-(1-4)L-fucosidase was used in place of the enzyme solution and a reaction mixture obtained by a reaction in which water was used in place of the substrate were similarly analyzed. […]

Q: For Hydroxyapatite, which Specific activity is on record?
A: 10.6 mU/mg

Q: What about the Total activity of the same substance?
A: 219 mU
